The source of these data is paper PMC10716122.

B1: Cyclic GMP-AMP synthase (cGAS), wild type, expressed in human cells [human] / TRIM41, HA-tagged [human] (parent)
chain 1: MQPWHGKAMQRASEAGATAPKASARNARGAPMDPTESPAAPEAALPKAGKFGPARKSGSRQKKSAPDTQERPPVRATGARAKKAPQRAQDTQPSDATSAPGAEGLEPPAAREPALSRAGSCRQRGARCSTKPRPPPGPWDVPSPGLPVSAPILVRRDAAPGASKLRAVLEKLKLSRDDISTAAGMVKGVVDHLLLRLKCDSAFRGVGLLNTGSYYEHVKISAPNEFDVMFKLEVPRIQLEEYSNTRAYYFVKFKRNPKENPLSQFLEGEILSASKMLSKFRKIIKEEINDIKDTDVIMKRKRGGSPAVTLLISEKISVDITLALESKSSWPASTQEGLRIQNWLSAKVRKQLRLKPFYLVPKHAKEGNGFQEETWRLSFSHIEKEILNNHGKSKTCCENKEEKCCRKDCLKLMKYLLEQLKERFKDKKHLDKFSSYHVKTAFFHVCTQNPQDSQWDRKDLGLCFDNCVTYFLQCLRTEKLENYFIPEFNLFSSNLIDKRSKEFLTKQIEYERNNEFPVFDEF
chain 2: MAAVAMTPNPVQTLQEEAVCAICLDYFTDPVSIGCGHNFCRVCVTQLWGGEDEEDRDELDREEEEEDGEEEEVEAVGAGAGWDTPMRDEDYEGDMEEEVEEEEEGVFWTSGMSRSSWDNMDYVWEEEDEEEDLDYYLGDMEEEDLRGEDEEDEEEVLEEVEEEDLDPVTPLPPPPAPRRCFTCPQCRKSFPRRSFRPNLQLANMVQVIRQMHPTPGRGSRVTDQGICPKHQEALKLFCEVDEEAICVVCRESRSHKQHSVVPLEEVVQEYKAKLQGHVEPLRKHLEAVQKMKAKEERRVTELKSQMKSELAAVASEFGRLTRFLAEEQAGLERRLREMHEAQLGRAGAAASRLAEQAAQLSRLLAEAQERSQQGGLRLLQDIKETFNRCEEVQLQPPEVWSPDPCQPHSHDFLTDAIVRKMSRMFCQAARVDLTLDPDTAHPALMLSPDRRGVRLAERRQEVADHPKRFSADCCVLGAQGFRSGRHYWEVEVGGRRGWAVGAARESTHHKEKVGPGGSSVGSGDASSSRHHHRRRRLHLPQQPLLQREVWCVGTNGKRYQAQSSTEQTLLSPSEKPRRFGVYLDYEAGRLGFYNAETLAHVHTFSAAFLGERVFPFFRVLSKGTRIKLCP

Variants of B1 are the subject of the assay. The assay is described as follows: co-IP (IP: GFP, blot cGAS-HA), band intensity printed under blot. Particulars: with TRIM41, HA-tagged [human]; HEK293T cells; TRIM41-GFP co-expressed; 100 μg/mL etoposide for 4 h; parent: 1.
For the variant chain 1 S120A, the ratio to parent was 0.68.
In the case of chain 1 S305A, the ratio to parent came to 0.51.
